The source of these data is paper PMC9174231.

The assay has as its target HA-tagged DDX6 (designed around the RecA2 region) (UniProt P26196). Put plainly: grating-coupled interferometry (GCI); Creoptix WAVEsystem; DDX6 protein immobilised on the sensor chip by amine coupling, 4E-T protein as analyte; PBS/0.01% Tween20; regeneration-free kinetics; blank without DDX6 as reference.
Chain of UniProt P26196 (P26196 whole entry): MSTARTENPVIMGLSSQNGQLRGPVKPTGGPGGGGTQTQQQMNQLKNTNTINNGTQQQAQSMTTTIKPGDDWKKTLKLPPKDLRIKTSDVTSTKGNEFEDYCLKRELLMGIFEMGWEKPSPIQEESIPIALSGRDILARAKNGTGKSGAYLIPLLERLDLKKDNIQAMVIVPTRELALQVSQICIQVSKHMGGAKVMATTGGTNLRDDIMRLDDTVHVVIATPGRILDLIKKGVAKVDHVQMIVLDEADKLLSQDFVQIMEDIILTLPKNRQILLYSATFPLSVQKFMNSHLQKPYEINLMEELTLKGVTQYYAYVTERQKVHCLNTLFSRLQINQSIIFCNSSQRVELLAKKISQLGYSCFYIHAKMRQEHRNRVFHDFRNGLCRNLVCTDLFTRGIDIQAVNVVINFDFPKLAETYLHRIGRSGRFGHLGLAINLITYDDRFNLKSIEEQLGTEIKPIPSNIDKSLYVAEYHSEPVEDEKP

By Kd is commonly meant a measure of binding affinity in units of concentration. Higher therefore signals a looser complex. As a reminder, the koff is the rate constant with which the complex falls apart. For orientation: kon means a measure of how fast the partners come together. Lower therefore signals slower complex formation. “HA-tagged 4E-T (designed around the CHD region) (from UniProt Q9NRA8 1-985) (domain or fragment)” displayed a Kd of 0.774 µM, a koff of 0.000278 s⁻¹ and a kon of 359 M⁻¹ s⁻¹.
